Results: patent US20240139289A1 (EXTEND BIOSCIENCES, published 2024)
Values belong to the binder of their own block, whether it stands above or below them. Ends that are not written are not given here.

Experiments:
[1] = biological target: T1, human parathyroid hormone receptor 1 (PTHR1) (human, UniProt Q03431 27-593); experiment: cell-based or functional assay
T1 sequence (looked up): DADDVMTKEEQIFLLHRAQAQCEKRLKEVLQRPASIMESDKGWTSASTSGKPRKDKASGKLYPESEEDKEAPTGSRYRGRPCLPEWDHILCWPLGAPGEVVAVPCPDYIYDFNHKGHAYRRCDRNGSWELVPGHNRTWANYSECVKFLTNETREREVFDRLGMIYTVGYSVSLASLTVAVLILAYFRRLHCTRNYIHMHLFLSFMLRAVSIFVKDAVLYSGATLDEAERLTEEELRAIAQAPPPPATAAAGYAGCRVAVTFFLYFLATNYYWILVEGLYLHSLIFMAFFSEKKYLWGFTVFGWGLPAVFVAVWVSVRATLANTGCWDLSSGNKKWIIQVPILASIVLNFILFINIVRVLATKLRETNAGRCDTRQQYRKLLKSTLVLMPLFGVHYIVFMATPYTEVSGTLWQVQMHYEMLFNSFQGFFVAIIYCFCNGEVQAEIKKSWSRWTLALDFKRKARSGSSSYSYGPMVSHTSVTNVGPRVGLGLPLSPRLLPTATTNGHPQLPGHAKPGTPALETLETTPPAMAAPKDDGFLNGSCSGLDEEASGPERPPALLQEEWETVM

[2] = biological target: T1, human parathyroid hormone receptor 1 …; experiment: cell-based or functional assay; remark: listed apart in the source
[3] = biological target: T2, Vitamin D binding protein (DBP) (Homo sapiens (Human)) (UniProt P02774); experiment: BLI (Octet Red96), biotinylated EXT607 on streptavidin tips, DBP 0-75 µM
T2 sequence: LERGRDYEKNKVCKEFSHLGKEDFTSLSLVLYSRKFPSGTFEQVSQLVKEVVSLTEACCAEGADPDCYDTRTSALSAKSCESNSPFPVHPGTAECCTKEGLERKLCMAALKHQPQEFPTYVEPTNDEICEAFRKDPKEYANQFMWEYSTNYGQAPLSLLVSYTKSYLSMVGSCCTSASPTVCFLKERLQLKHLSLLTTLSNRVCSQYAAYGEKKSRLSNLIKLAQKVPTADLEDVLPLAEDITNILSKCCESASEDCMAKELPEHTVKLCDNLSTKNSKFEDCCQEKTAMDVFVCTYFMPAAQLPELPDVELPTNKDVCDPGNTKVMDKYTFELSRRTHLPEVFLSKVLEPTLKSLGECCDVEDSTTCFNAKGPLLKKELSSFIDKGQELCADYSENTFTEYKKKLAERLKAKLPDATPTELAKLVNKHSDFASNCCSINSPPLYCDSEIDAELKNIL

[4] = biological target: T2, Vitamin D binding protein (DBP) (Homo sapiens (Human)); experiment: BLI (Octet Red96), biotinylated EXT607 on streptavidin tips, DBP 0-75 µM, steady-state fit
[5] = biological target: T2, Vitamin D binding protein (DBP) (Homo sapiens (Human)); experiment: BLI (Octet Red96), biotinylated EXT608 on streptavidin tips, DBP 0-75 µM
[6] = biological target: T2, Vitamin D binding protein (DBP) (Homo sapiens (Human)); experiment: BLI (Octet Red96), biotinylated EXT608 on streptavidin tips, DBP 0-75 µM, steady-state fit

B1: EXT607 (PTH(1-34)-Cys-PEG36-25-hydroxy-vitamin D conjugate, C-terminal acid, R = OH) (peptide)
peptide: SVSEIQLMHNLGKHLNSMERVEWLRKKLQDVHNFC
modifications: C-terminal Cys (position 35) carries succinimido-propionylamino-PEG36-propionyl-aminopropyl-25-hydroxy-Vitamin D on its thiol; C-terminus is free acid (-OH)
EC50, cell-based calcium flux assay in agonist mode (percent efficacy) [2]: 21 nM | maximum response (BLI shift) [3]: 1.79 nm | Kd [4]: 8100 nM

B4: EXT608 (PTH(1-34)-Cys-PEG36-25-hydroxy-vitamin D conjugate, C-terminal amide, R = NH2) (peptide)
peptide: SVSEIQLMHNLGKHLNSMERVEWLRKKLQDVHNFC
modifications: C-terminal Cys (position 35) carries succinimido-propionylamino-PEG36-propionyl-aminopropyl-25-hydroxy-Vitamin D on its thiol; C-terminal amide (-NH2)
EC50, cell-based calcium flux assay in agonist mode (percent efficacy) [2]: 22 nM | PTHR1 EC50, calcium mobilization assay in agonist mode [1]: 28.6 nM | maximum response (BLI shift) [5]: 1.79 nm | Kd [6]: 5200 nM

Binder: SVSEIQLMHNLGKHLNSMERVEWLRKKLQDVHNFC-NH2 (not fully specified (residue 35); also: acetate salt) [EXT611 (PTH-cys-PEG12-VitD)]
PTHR1 EC50, calcium mobilization assay in agonist mode [1]: 32.3 nM

Binder: SVSEIQLMHNLGKHLNSMERVEWLRKKLQDVHNFC-NH2 (not fully specified (residue 35); also: acetate salt) [EXT606 (PTH-cys-PEG24-VitD)]
PTHR1 EC50, calcium mobilization assay in agonist mode [1]: 30.5 nM

Further lines, results first:

PTHR1 EC50, calcium mobilization assay in agonist mode [1]: 29.9 nM
Binder: SVSEIQLMHNLGKHLNSMERVEWLRKKLQDVHNFC-NH2 (not fully specified (residue 35); also: acetate salt) [EXT615 (PTH-PEG5 kDa-VitD)]

PTHR1 EC50, calcium mobilization assay in agonist mode [1]: 33.6 nM
B2: EXT616 (PTH-PEG10 kDa-VitD) (peptide)
peptide: SVSEIQLMHNLGKHLNSMERVEWLRKKLQDVHNFC
modifications: C-terminal Cys thiol conjugated through maleimide-PEG ~10,000 Da (~227 units) to VitD-NH2 (25-hydroxy vitamin D, C3 position); C-terminal amide

fold increase of PTHR1 EC50 against the conjugates with shorter PEG linkers [2]: ~7 fold | PTHR1 EC50, calcium mobilization assay in agonist mode [1]: 221 nM
B3: EXT617 (PTH-PEG20 kDa-VitD) (peptide)
peptide: SVSEIQLMHNLGKHLNSMERVEWLRKKLQDVHNFC
modifications: C-terminal Cys thiol conjugated through maleimide-PEG ~20,000 Da (~455 units) to VitD-NH2 (25-hydroxy vitamin D, C3 position); C-terminal amide
